The values below come from PMC10076392, “Structure of the heterotrimeric membrane protein complex FtsB-FtsL-FtsQ of the bacterial divisome” (Nature Communications, 2023).

In this assay the target is T1, FtsW-FtsI complex, His-tagged (E. coli strain K12, UniProt P0ABG4 1-414; P0AD68 1-577).
T1 construct: FtsW, transglycosylase, E. coli strain K12 (ATCC10798D-5), amplified from the genome with primers W-F and W-R; also called FtsWI; His-tagged FtsWI; source: E. coli C43, co-expressed from pETduet-FtsWI, purified (Ni-NTA, Superdex-200) in DDM
T1 sequence (looked up) 1: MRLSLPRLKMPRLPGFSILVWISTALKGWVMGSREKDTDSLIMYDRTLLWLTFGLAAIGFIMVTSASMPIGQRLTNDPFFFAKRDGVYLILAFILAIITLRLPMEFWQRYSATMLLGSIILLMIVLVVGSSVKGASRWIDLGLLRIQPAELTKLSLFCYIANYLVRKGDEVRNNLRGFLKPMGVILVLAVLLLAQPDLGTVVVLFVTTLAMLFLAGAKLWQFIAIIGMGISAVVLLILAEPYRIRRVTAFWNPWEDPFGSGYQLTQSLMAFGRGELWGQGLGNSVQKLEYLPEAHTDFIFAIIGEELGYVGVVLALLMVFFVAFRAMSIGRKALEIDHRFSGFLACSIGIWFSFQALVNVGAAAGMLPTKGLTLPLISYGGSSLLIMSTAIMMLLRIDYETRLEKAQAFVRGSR
T1 sequence (looked up) 2: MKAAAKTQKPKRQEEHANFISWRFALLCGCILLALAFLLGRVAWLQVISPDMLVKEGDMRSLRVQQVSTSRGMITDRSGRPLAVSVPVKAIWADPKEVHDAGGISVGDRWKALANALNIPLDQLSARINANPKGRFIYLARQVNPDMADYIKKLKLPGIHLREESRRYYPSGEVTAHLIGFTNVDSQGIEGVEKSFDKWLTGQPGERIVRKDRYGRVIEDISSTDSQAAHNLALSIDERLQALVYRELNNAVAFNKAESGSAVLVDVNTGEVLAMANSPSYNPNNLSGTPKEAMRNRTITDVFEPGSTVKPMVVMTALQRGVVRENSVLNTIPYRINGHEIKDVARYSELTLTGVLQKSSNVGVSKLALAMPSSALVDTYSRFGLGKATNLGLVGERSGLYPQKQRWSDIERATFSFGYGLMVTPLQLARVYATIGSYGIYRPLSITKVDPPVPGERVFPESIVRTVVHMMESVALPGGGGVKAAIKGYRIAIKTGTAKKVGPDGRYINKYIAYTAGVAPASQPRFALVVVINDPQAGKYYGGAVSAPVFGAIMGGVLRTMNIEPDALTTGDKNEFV
Kind of assay: BLI; His-tagged protein loaded at 50 μg/ml on HIS1K (Anti-Penta-HIS) biosensors; analyte in threefold dilutions 0.016-4 µM; 200 mM NaCl, 20 mM HEPES pH7.5, 0.1% DDM; 240 sec association and dissociation; Octet HTX. The settings on record: both partners purified. (In general: Biolayer interferometry detects binding as a change in optical thickness at a sensor tip.)

B1: PBP1b (aa58-804) (enzyme, E. coli strain K12, UniProt P02919 58-804, looked up)
chain: KPRGKRGWLWLLLKLAIVFAVLIAIYGVYLDQKIRSRIDGKVWQLPAAVYGRMVNLEPDMTISKNEMVKLLEATQYRQVSKMTRPGEFTVQANSIEMIRRPFDFPDSKEGQVRARLTFDGDHLATIVNMENNRQFGFFRLDPRLITMISSPNGEQRLFVPRSGFPDLLVDTLLATEDRHFYEHDGISLYSIGRAVLANLTAGRTVQGASTLTQQLVKNLFLSSERSYWRKANEAYMALIMDARYSKDRILELYMNEVYLGQSGDNEIRGFPLASLYYFGRPVEELSLDQQALLVGMVKGASIYNPWRNPKLALERRNLVLRLLQQQQIIDQELYDMLSARPLGVQPRGGVISPQPAFMQLVRQELQAKLGDKVKDLSGVKIFTTFDSVAQDAAEKAAVEGIPALKKQRKLSDLETAIVVVDRFSGEVRAMVGGSEPQFAGYNRAMQARRSIGSLAKPATYLTALSQPKIYRLNTWIADAPIALRQPNGQVWSPQNDDRRYSESGRVMLVDALTRSMNVPTVNLGMALGLPAVTETWIKLGVPKDQLHPVPAMLLGALNLTPIEVAQAFQTIASGGNRAPLSALRSVIAEDGKVLYQSFPQAERAVPAQAAYLTLWTMQQVVQRGTGRQLGAKYPNLHLAGKTGTTNNNVDTWFAGIDGSTVTITWVGRDNNQPTKLYGASGAMSIYQRYLANQTPTPLNLVPPEDIADMGVDYDGNFVCSGGMRILPVWTSDPQSLCQQSEMQQQPS
notes: PBP1b, bi-functional peptidoglycan synthase, E. coli strain K12 (ATCC10798D-5), residues 58-804; Analyte in BLI; source: E. coli C43, from pET15b-PBP1b, purified (Ni-NTA, Superdex-200) in DDM
As for B1, the binding result is “binds”.
